Experimental data: patent publication US20050143285A1 (published 2005)

Assays:
α-bungarotoxin [1] = molecular target: T1, α-bungarotoxin (UniProt P60615 22-95)
T1 sequence: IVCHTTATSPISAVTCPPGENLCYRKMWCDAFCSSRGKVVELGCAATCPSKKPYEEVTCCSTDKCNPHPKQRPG

α-bungarotoxin [2] = molecular target: T1, α-bungarotoxin; assay: stopped-flow spectrofluorimetry, excitation 280 nm, emission above 305 nm
α-bungarotoxin [3] = molecular target: T1, α-bungarotoxin; assay: stopped-flow spectrofluorimetry

B1: Aplysia californica acetylcholine binding protein (AChBP) (other)
chain: HSQANLMRLKSDLFNRSPMYPGPTKDDPLTVTLGFTLQDIVKADSSTNEVDLVYYEQQRWKLNSLMWDPNEYGNITDFRTSAADIWTPDITAYSSTRPVQVLSPQIAVVTHDGSVMFIPAQRLSFMCDPTGVDSEEGATCAVKFGSWVYSGFEIDLKTDTDQVDLSSYYASSKYEILSATQTRQVQHYSCCPEPYIDVNLVVKFRERRAGNGFFRNLFD
Kd (α-bungarotoxin [1]): 250 nM | kon (α-bungarotoxin [2]): 1e+06 M⁻¹ s⁻¹ | koff (α-bungarotoxin [3]): 0.32 s⁻¹
